# B1: Recombinant full-length rat neuropilin-1/Fc chimera (Fc fusion, UniProt Q9QWJ9 22-855, looked up)
# chain: FRSDKCGGTIKIENPGYLTSPGYPHSYHPSEKCEWLIQAPEPYQRIMINFNPHFDLEDRDCKYDYVEVIDGENEGGRLWGKFCGKIAPSPVVSSGPFLFIKFVSDYETHGAGFSIRYEIFKRGPECSQNYTAPTGVIKSPGFPEKYPNSLECTYIIFAPKMSEIILEFESFDLEQDSNPPGGVFCRYDRLEIWDGFPEVGPHIGRYCGQKTPGRIRSSSGILSMVFYTDSAIAKEGFSANYSVLQSSISEDFKCMEALGMESGEIHSDQITASSQYGTNWSVERSRLNYPENGWTPGEDSYREWIQVDLGLLRFVTAVGTQGAISKETKKKYYVKTYRVDISSNGEDWITLKEGNKAIIFQGNTNPTDVVFGVFPKPLITRFVRIKPASWETGISMRFEVYGCKITDYPCSGMLGMVSGLISDSQITASNQGDRNWMPENIRLVTSRTGWALPPSPHPYINEWLQVDLGDEKIVRGVIIQGGKHRENKVFMRKFKIAYSNNGSDWKMIMDDSKRKAKSFEGNNNYDTPELRAFTPLSTRFIRIYPERATHSGLGLRMELLGCEVEVPTAGPTTPNGNPVDECDDDQANCHSGTGDDFQLTGGTTVLATEKPTIIDSTIQSEFPTYGFNCEFGWGSHKTFCHWEHDSHAQLRWRVLTSKTGPIQDHTGDGNFIYSQADENQKGKVARLVSPVVYSQSSAHCMTFWYHMSGSHVGTLRVKLHYQKPEEYDQLVWMVVGHQGDHWKEGRVLLHKSLKLYQVIFEGEIGKGNLGGIAVDDISINNHIPQEDCAKPTDLDKKNTEIKIDETGSTPGYEEGKGDKNISRKPGNVLKTLDP
# notes: rat neuropilin-1, unmodified extracellular domain; transmembrane and cytosolic domains replaced with a C-terminal portion of human IgG-Fc; also called NRP1-Fc; NRP1; source: bought: R&D Systems; not shown: Fc (human IgG), C-terminal, kept
# Biological target: T1, Human recombinant AGO2, full-length protein (human, UniProt Q9UKV8 1-859)
# T1 construct: human AGO2 (argonaute 2), full-length recombinant protein; also called full-length AGO2; source: bought: Biorbyt
# T1 sequence (Q9UKV8 whole entry): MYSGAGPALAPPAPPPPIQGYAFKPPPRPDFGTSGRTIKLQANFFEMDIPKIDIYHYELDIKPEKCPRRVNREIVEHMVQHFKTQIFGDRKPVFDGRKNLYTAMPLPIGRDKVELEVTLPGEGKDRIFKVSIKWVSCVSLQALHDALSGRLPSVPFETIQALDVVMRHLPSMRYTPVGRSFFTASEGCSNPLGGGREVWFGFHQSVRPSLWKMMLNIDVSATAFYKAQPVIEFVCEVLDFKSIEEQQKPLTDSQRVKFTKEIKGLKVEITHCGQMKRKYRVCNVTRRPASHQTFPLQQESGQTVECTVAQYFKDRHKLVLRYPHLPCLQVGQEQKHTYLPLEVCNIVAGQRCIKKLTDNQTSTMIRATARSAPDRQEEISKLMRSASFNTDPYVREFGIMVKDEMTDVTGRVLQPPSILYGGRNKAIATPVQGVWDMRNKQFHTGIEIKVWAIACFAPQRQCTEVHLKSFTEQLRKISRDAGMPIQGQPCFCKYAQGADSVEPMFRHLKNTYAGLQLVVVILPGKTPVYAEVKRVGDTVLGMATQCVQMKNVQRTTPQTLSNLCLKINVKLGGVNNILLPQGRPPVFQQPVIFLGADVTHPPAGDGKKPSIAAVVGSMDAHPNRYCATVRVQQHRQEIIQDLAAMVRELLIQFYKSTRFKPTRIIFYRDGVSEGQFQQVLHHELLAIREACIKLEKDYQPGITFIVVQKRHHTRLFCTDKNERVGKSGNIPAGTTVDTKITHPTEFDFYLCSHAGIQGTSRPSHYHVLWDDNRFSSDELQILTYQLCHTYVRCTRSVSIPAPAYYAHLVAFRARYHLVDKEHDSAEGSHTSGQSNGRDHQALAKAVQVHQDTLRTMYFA
# Assay: ELISA; plate coated with NRP1-Fc; full-length AGO2 pre-mixed or not with an equimolar amount of miR-20a (1 h, 37°C, Ca/Mg-HBSS) and serially diluted; bound AGO2 detected with anti-pan AGO2 antibody, anti-mouse IgG-HRP and TMB (OD450 minus non-specific binding)
# Conditions: both partners purified
binder,measurement,value
B1,binding result,binds
